Values quoted from earlier work as cited in paper PMC12192639.

Columns and labels:
[1] = target: SSB C-terminal peptide last eight amino acids (Escherichia coli) (UniProt P0AGE0)
[2] = target: RecO (Escherichia coli) (UniProt B1XB39)

Chain of UniProt P0AGE0 (P0AGE0 whole entry, looked up): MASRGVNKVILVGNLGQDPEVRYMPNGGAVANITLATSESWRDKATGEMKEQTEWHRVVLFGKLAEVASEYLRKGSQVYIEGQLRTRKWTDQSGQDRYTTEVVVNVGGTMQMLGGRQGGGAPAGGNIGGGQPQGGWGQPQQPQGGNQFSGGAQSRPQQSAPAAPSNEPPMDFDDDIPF

Kd [2] [µM]	Substance	Kd [1] [µM]
	RecO (from UniProt B1XB39)	0.15
0.126	RecR (from UniProt C4ZUS6)	
